This is an account of results in patent US20230357384A1 (NEXTCURE, published 2023).

Substitutions are numbered along the chain they refer to. Some results are limits rather than exact numbers.

In assay [1] the target is T1, FLRT3 (antigen of the binning assay of Table 2) (Homo sapiens (Human), UniProt Q9NZU0 29-528, limits assumed).
T1 construct: the whole entry for FLRT3 is named
T1 sequence: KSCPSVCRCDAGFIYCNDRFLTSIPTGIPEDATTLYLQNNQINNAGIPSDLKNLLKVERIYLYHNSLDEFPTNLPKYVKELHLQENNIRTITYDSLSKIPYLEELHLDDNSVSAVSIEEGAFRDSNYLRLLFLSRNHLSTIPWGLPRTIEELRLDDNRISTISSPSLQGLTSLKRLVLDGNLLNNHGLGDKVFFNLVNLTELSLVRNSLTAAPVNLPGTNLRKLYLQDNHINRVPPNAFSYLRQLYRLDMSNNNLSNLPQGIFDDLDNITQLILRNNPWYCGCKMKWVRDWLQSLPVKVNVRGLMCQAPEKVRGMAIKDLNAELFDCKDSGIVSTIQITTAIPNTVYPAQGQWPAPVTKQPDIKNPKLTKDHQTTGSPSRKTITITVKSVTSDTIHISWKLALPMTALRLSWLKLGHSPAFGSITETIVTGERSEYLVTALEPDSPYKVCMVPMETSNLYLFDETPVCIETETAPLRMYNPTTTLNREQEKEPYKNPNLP
The assay is described as follows: antibody binning matrix (Table 2); competitor: 1H5.

The target in assay [2] is T1, FLRT3 (antigen of the binning assay of …). The assay is described as follows: antibody binning matrix (Table 2); competitor: 2F7.
The target is the same in assay [3]. The assay is described as follows: antibody binning matrix (Table 2); competitor: 5C2.
Assay [4] shares this target. The assay is described as follows: antibody binning matrix (Table 2); competitor: 14B7.
Assay [5] shares this target. In words: antibody binning matrix (Table 2); competitor: 14D3.
Assay [6] addresses T2, FLRT3-His monomeric fusion protein (Homo sapiens (Human), UniProt Q9NZU0 29-528).
T2 construct: also called FLRT3 monomer; not shown: His tag
T2 sequence: T1 sequence
In words: kinetic affinity measurement with FLRT3-His monomer (Table 1).

Assay [7] has as its target T1, FLRT3 (antigen of the binning assay of …). In words: antibody binning matrix (Table 2); competitor: 15G11.
Assay [8] addresses T3, human FLRT3 on cells (human, UniProt Q9NZU0 29-649).
T3 construct: also called hFLRT3
T3 sequence: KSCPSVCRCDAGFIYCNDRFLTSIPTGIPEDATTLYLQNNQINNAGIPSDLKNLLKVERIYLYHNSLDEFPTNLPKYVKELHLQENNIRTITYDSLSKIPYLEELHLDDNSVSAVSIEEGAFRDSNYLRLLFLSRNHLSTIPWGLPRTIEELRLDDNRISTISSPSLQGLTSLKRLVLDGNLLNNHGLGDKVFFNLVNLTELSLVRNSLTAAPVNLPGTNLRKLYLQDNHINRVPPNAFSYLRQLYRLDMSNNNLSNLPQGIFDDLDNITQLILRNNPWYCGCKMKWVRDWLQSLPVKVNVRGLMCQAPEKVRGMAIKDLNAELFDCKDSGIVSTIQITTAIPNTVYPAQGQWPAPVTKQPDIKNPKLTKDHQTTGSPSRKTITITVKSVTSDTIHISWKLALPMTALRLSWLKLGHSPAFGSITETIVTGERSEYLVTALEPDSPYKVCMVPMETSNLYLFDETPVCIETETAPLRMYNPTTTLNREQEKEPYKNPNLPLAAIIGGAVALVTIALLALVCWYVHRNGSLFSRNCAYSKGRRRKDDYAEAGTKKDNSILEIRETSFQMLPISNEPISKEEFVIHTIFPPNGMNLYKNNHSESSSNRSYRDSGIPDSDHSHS
In words: flow cytometry (AF647 MFI), FLRT3-293T-OKT3 cells, antibody titration. A general note: Flow cytometry measures light scatter and fluorescence of single cells or particles in a stream.

Assay [9] concerns the target T1, FLRT3 (antigen of the binning assay of …). The assay is described as follows: antibody binning matrix (Table 2); row '1X Kinetic' (no first antibody), column antibody taken as binder.
Assay [10] concerns the target T3, human FLRT3 on cells. The assay is described as follows: flow cytometry on A549 cells (endogenous hFLRT3), normalised MFI, non-linear fit. The procedure: Increasing concentrations of FLRT3 antibodies bound to A549 cells that express endogenous hFLRT3 (FIG. 19). Binding curves for the top three antibodies were performed (FIG. 20A). MFI values of each group were normalized within that group- i.e. largest value 100% and smallest value 0% (FIG. 20A). EC50 values were calculated based on non-linear regression fit (FIG. 20B).

Assay [11] concerns the target T3, human FLRT3 on cells. In words: flow cytometry on 293T cells transfected with human FLRT3, normalised MFI, non-linear fit; Exp 1. An excerpt:
(§1) MFI values of each group were normalized within that group- i.e. largest value 100% and smallest value 0%.

Assay [12] concerns the target T3, human FLRT3 on cells. In words: flow cytometry on 293T cells transfected with human FLRT3, normalised MFI, non-linear fit; Exp 2.
Source text: as §1

The target in assay [13] is T4, mouse FLRT3 on transiently transfected 293T cells (mouse, UniProt Q8BGT1 29-649).
T4 construct: also called mFLRT3
T4 sequence: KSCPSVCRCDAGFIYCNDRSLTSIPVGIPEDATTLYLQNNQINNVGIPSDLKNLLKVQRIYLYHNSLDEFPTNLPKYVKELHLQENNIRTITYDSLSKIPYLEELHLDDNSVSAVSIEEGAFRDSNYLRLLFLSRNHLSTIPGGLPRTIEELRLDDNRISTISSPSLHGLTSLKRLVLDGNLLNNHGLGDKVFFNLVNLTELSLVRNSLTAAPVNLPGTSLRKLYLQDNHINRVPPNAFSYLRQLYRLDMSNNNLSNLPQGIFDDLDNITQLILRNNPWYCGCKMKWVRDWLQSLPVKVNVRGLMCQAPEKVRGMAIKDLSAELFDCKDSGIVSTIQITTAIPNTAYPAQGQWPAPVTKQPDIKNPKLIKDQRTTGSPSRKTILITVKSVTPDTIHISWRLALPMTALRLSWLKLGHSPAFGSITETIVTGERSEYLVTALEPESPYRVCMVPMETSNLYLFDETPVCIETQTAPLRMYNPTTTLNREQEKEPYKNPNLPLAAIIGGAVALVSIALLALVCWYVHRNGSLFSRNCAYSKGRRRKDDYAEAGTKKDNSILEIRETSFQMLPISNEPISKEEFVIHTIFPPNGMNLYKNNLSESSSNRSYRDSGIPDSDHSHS
In words: flow cytometry (AF647 MFI), transiently transfected mFLRT3-293T cells.

Assay [14] has as its target T3, human FLRT3 on cells. The assay is described as follows: flow cytometry on 293T cells transfected with human FLRT3, normalised MFI, non-linear fit.
Source text: as §1

B1: 1H5 (antibody, V domains shown)
VH: EVQLQQSGPELVKPGASVKMSCKASGYTFTDYYMNWVKQSHGKSLEWIGRVNPSNGVTSYNQKFKGKAALTVDKSLSTAYMQLNSLTSEDSAVYYCARDFLMDYWGQGTSVTVSS
VL: DIVMTQSHKFMSTSVGDRVTITCKASQDVGTAVAWYQQKPGQSPKLLIYWASTRHTGVPDRFTGSGSGTDFTLTISNVQSEDLADYFCQQYSSYPTFGGGTKLEIK
notes: Variable domains only
As usually defined, the Kd is the free concentration of one partner at which half of the binding sites on the other are occupied at equilibrium, for simple one-to-one binding. A lower Kd goes with higher affinity. In general, koff refers to a measure of how fast the partners let go of each other. Lower therefore signals slow dissociation. What is called kon is a measure of how fast the partners come together. For orientation: EC50 (read off the curve) means the concentration needed to bring the measured effect to its halfway point. A higher EC50 (read off the curve) goes with lower potency in that assay. As for B1, the “binning response (no name or unit printed)” value in assay [1] was -0.0568; in assay [2], -0.0098; in assay [3] it was -0.26; in [4], 1.2; in assay [5], 0.549; in assay [7], 0.97. In assay [9], the “binning response (no name or unit printed)” value came to 0.947. In addition, the Kd in assay [6] was found to be 0.19 nM. This molecule had an off-rate (koff) in assay [6] of 1.6e-05 s⁻¹. Further, in assay [6], the kon came out at 140000 M⁻¹ s⁻¹. Also, the “EC50 (read off the curve)” value in assay [8] is about 10 nM.

B2: 2F7 (antibody, V domains shown)
VH: EVQLQQSGPELVKPGASVKMSCKASGYTFTDYYMNWVKQSHGKSLEWIGRVYPSNSGASYNQKFKGKATLTVDKSLSTAYMQLNSLTSEDSAVYYCASSYYFDYWGQGTTLTVSS
VL: B1 VL with V15I, T20N, Y36F, G99A, K102T, I105L
notes: Variable domains only
As for B2, the “binning response (no name or unit printed)” value was -0.116 in assay [1]; -0.0655 in assay [2]; -0.398 in [3]; 1.06 in assay [4]; 0.38 in [5]; 0.798 in assay [7]. Besides, the “binning response (no name or unit printed)” value in assay [9] was determined as 0.99. In [6], this molecule came in with a koff of 0.000135 s⁻¹. Also, the kon in assay [6] stood at 177000 M⁻¹ s⁻¹. Further, in assay [8], the “EC50 (read off the curve)” value is about 8 nM.

B3: 12A4 (antibody, V domains shown)
VH: B1 VH with V57G, S59T, K63R, A69T, K74E
VL: B1 VL with T20S, A34T, Q42L, I48F, Q89H, S93N
notes: Variable domains only
By EC50 is commonly meant the concentration at which the effect is half-maximal. In [6], B3 had a Kd of 0.218 nM, a koff of 3.24e-05 s⁻¹ and a kon of 133000 M⁻¹ s⁻¹. The midpoint of the response in assay [10], the EC50, lay at 251 nM. The EC50 in assay [11] amounted to 15.7 nM. The molecule also displayed an EC50 in [12] of 17.7 nM.

B4: 14D3 (antibody, V domains shown)
VH: EIQLQQSGAELVKPGASVKISCKASGYSFTGYNMNWVKQSHGKSLEWIGNITPYYGSASYNQKFKGKATLTVDKSSSTAYMQLNSLTSEDSAVYYCARRSYDYDENAMDYWGQGTSVTVSS
VL: DIVMTQSHKFMSTSVGDRVSITCKASQDLSTAVAWYQQKPGQSPKLLIYSASYRYTGVPDRFTGSGSGTDFTFTISSVQAEDLAVYYCQQHYSTPLTFGAGTKLELK
notes: Variable domains only
As for B4, the “binning response (no name or unit printed)” value in assay [1] is 0.644; in assay [2], 0.75; in [3], -0.101; in assay [4], 1.36; in [5], -0.0406; in assay [7], 0.196. For the same molecule, the “binning response (no name or unit printed)” value in [9] was 0.947. For the same molecule, the binding result in [13] is “binds”. Besides, the EC50 in [10] is 8.21 nM; in [14], under 5 nM; in assay [11] it was 1.82 nM; in assay [12], 3.24 nM.

B5: 7H7 (antibody, V domains shown)
VH: EIQLQQSGAELVKPGASVKISCKASGYSFTGYNMNWVKQSHGKSLEWIGNINPYYGSTSYNQKFKGKATLTVDKSSNTAYMQLNSLTSEDSAVYYCARWGYGYDDWYFDVWGAGTTVTVSS
VL: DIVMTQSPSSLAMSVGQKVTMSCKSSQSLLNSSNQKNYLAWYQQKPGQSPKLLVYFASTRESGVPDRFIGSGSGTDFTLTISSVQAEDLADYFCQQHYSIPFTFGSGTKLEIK
notes: Variable domains only
In [6], B5 had a Kd of at most 0.001 nM, a koff of at most 1e-07 s⁻¹ and a kon of 60500 M⁻¹ s⁻¹.

B6: 10C6 (antibody, V domains shown)
VH: EIQLQQSGAEMVKPGASVKISCKASGHSFTGYNMNWVKQSHEKSLEWIGNINPYYGSTSYNQKFKGKATLTVDKSSSTAYMQLNSLTSEDSAVYYCARGGYDDYFDYWGQGTTLTVSS
VL: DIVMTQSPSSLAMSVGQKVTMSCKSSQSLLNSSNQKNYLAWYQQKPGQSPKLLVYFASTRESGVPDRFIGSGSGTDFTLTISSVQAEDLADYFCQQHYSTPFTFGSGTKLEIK
notes: Variable domains only
For the molecule B6, the binding result in assay [8] is listed as “no binding (tested: about 300 nM)”.

B7: 20C3 (antibody, V domains shown)
VH: EVKLEESGGGLVQPGGSMKLSCVVSGFTFSNYWMNWVRQSPEKGLEWVAQIRLKSDNYATHYAESVKGRFTISRDDSKSSVYLQMNNLRAEDTGIYYCTGESNIYYGYFDYWGQGTTLTVSS
VL: QIVLTQSPAIMSASPGEKVTMTCSASSSVSYMHWYQQKSGTSPKRWIYDTSKLASGVPARFSGSGSGTSYSLTISSMEAEDAATYYCQQWSGNPYTFGGGTKLEIK
notes: Variable domains only
Regarding B7, in [6], the Kd is 2.21 nM, the koff is 0.000207 s⁻¹ and the kon was found to be 86200 M⁻¹ s⁻¹.
